The record followed here is publication PMC4288174 (Nucleic Acids Research, 2014).

The experiment concerns the target Recombinant hemagglutinin-tagged full-length CSB (human, UniProt Q03468 1-1493). Briefly: pull-down; ΔN-SNM1A (500 ng) with or without HA-CSB (500 ng) and α-HA magnetic beads; 20 mM HEPES pH 7.9, 4 mM MgCl2, 0.05 mM ATP, 40 μg/ml BSA, 1 mM DTT, 4°C, 2 h; silver stain. The conditions noted are these: both partners purified.

Chain of Recombinant hemagglutinin-tagged full-length CSB (Q03468 whole entry): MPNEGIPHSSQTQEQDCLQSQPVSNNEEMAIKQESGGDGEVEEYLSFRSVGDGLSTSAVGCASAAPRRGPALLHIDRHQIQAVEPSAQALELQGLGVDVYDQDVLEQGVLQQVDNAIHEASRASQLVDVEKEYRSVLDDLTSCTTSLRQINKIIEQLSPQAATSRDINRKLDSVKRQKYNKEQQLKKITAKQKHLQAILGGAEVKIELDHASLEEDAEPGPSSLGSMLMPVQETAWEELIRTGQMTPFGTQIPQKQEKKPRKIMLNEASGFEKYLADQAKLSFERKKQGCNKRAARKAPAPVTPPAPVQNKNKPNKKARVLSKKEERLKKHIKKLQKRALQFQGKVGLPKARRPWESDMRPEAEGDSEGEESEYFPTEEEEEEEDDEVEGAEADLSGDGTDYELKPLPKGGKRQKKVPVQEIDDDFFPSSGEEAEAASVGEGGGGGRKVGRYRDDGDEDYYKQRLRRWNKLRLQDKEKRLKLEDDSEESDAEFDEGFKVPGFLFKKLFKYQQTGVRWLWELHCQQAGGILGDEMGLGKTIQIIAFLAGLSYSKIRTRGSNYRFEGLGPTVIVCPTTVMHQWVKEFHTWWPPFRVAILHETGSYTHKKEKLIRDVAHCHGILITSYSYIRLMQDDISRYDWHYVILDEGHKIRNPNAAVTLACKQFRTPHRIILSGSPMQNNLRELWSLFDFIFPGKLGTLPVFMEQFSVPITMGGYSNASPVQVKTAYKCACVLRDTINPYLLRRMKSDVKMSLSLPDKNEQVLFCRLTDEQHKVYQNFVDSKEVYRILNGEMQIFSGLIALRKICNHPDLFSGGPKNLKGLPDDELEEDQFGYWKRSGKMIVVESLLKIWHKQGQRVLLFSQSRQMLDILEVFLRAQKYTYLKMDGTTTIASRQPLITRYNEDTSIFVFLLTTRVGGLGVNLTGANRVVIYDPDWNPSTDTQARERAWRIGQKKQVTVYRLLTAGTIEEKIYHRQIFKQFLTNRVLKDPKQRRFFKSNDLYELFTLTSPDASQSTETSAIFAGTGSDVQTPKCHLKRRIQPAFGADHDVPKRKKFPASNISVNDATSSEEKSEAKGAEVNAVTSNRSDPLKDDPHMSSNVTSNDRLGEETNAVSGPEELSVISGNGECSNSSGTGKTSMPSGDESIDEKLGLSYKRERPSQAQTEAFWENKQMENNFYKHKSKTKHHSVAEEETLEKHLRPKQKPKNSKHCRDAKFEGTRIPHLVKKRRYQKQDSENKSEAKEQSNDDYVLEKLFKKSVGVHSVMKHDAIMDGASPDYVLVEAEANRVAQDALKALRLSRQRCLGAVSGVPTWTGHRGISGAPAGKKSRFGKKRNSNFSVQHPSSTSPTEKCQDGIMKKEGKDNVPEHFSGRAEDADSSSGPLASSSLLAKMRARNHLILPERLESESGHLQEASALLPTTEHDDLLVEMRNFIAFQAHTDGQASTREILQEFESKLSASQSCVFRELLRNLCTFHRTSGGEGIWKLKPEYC

B1: SNM1A nuclease fragment consisting of residues 608 to 1040 (domain or fragment, human, UniProt Q6PJP8 608-1040, looked up)
chain: SDLEFDASTLHESQLSVELSSERSQRQKKRCRKSNSLQEGACQKRSDHLINTESEAVNLSKVKVFTKSAHGGLQRGNKKIPESSNVGGSRKKTCPFYKKIPGTGFTVDAFQYGVVEGCTAYFLTHFHSDHYAGLSKHFTFPVYCSEITGNLLKNKLHVQEQYIHPLPLDTECIVNGVKVVLLDANHCPGAVMILFYLPNGTVILHTGDFRADPSMERSLLADQKVHMLYLDTTYCSPEYTFPSQQEVIRFAINTAFEAVTLNPHALVVCGTYSIGKEKVFLAIADVLGSKVGMSQEKYKTLQCLNIPEINSLITTDMCSSLVHLLPMMQINFKGLQSHLKKCGGKYNQILAFRPTGWTHSNKFTRIADVIPQTKGNISIYGIPYSEHSSYLEMKRFVQWLKPQKIIPTVNVGTWKSRSTMEKYFREWKLEAGY
With B1, the binding result is “binds”.
